Experimental data taken from the DeepSol protein solubility set.

test: soluble on expression in E. coli; label from the status in PepcDB or PDB records

Sequence	soluble on expression in E. coli
MSEPIRVLVTGAAGQIAYSLLYSIGNGSVFGKDQPIILVLLDITPMMGVLDGVLMELQDCALPLLKDVIATDKEDVAFKDLDVAILVGSMPRREGMERKDLLKANVKIFKSQGAALDKYAKKSVKVIVVGNPANTNCLTASKSAPSIPKENFSCLTRLDHNRAKAQIALKLGVTANDVKNVIIWGNHSSTQYPDVNHAKVKLQGKEVGVYEALKDDSWLKGEFVTTVQQRGAAVIKARKLSSAMSAAKAICDHVRDIWFGTPEGEFVSMGVISDGNSYGVPDDLLYSFPVVIKNKTWKFVEGLPINDFSREKMDLTAKELTEEKESAFEFLSSA	soluble
MSLKITKIETTLFEYKLDRSMGDANSPMGRKKGSGCVLELITDEGISGISIGGQNALPQINSIFDGILLNNDPKAIFSIWKRMVEKYFKGGHDGIANDAISAIDVALWDLKAKINEEPLWKTLGGNNNKVNVYASDIALPINDDDLFNWYSKMSDKFGFKGGKLKVGLDQESDLKRLELMHNALSKNCDDPILYVDSNEYWSPKQTIRNVSEMEERFTLGWIEEPARRWDFLGLKKVSDSLQTPVCAGENLDTLGDFLPYFHHRSADVIQVSHGMTGISGALQIADAAYALELPVTLGGSSGIIHAHIANAIPNCITVEVPHPEPETKVFTSDVTIKDGYAFVGNKPGMGIEVNYEELAKHKVEKVSQKAGPSPYGRRPGAGLYEIPPTKEEISEGQSKEGHHHHHH	soluble
MGSDKIHHHHHHMAEQMRRVARLFGDWPETIIWTCLEGTMGDIYVDDSQSPQSALALYGRQSFFGFLAGQPHRDLLKICEGKNIILVPQNQAWSDLIEEVYGDGVRFFTRYATKKDTEFDLGHLQKLVDDLPESFDMKLIDRNLYETCLVEEWSRDLVGNYIDVEQFLDLGLGCVILHKGQVVSGASSYASYSAGIEIEVDTREDYRGLGLAKACAAQLILACLDRGLYPSWDAHTLTSLKLAEKLGYELDKAYQAYEWR	not soluble
MVNIMDEIIVVTTPTIPGYKIIEVKGIARGGIVMATHLGRDILALLRNIKGGEVKEYTQMMAEAREEALRRMIEHAKKLGANAVVNFRFATSNVGGGMAEVYAYGTAVVVEREKMASMTGGQQMGRIRIRLEHHHHHH	soluble
MKPWLITPERLTSEQIGLLDHFFDRGLERLHLRLPSAGEEDYSQVIEAVAACYRRRIVVHDHPRLVGRYGLCGLHLPERVWKGMTDRPQLPDGCTVSASCHAIEDIESFPFRLDYCFLSPVFDSLCKVGYAGRFSPDS	not soluble
MSLADTLMSDTPFWQRKTLDEMTDAEWESLCDGCGQCCLHKLMDEDTDEIYFTNVACRQLNIKTCQCRHYERRFEFEPDCIKLTRENLPDFEWLPMTCAYRLLAEGKPLPTWHPLLTGSKAAMHGERISVRHIAVKESEVRDWQDHILNKPSWAEEGHHHHHH	not soluble
MSLKIVVTKFGGSSLADSNQFKKVKGIIDSDANRKYIIPSAPGKRTNKDYKITDLLYLCNAHVKNGIPFDDVFKLISQRYTEIVSELNIDMDIAYYLEKVKKNIENGASSDYAASRGEYLNGVILAKYLNAEFIDAAEVIFFDKSGCFDEKKSYEKIKEKVLSCNKAVIPGFYGSSFNGDVKTFSRGGSDVTGSIISAGVNADLYENWTDVSGFLMADPRIVENPKTISKISYKELRELSYMGATVLHEEAIFPVKDSGIPINIKNTNKPSDPGTLILSDTHKEINLGTITGIAGKKNFTVIAIEKALLNSEVGFCRKILSILEMYGVSFEHMPSGVDSVSLVIEDCKLDGKCDKIIEEIKKQCNPDSIEIHPNMALVATVGTGMAKTKGIANKIFTALSKENVNIRMIDQGSSEINVIVGVETVDFEKAVKSIYNAFNEGHHHHHH	soluble
ARPKGIRIGYLPQVMRLQDGHTVYEEVEQAFNDIRQIEEEIRRLSDEMAGRTDYESDDYIRLIEHYTNMSETLSLMQQGNYHAAIEQTLIGLGFGREDFHRPTADFSGGWRMRIELAKLLLQRPEVLLLDEPTNHLDIESIGWLEQFIATNAGAVILVSHDRAFIDNTTTRTIEIELGHIYDYKTNYSHYVELREERLRQQMRAYENQQKMIRDTEDFIERFRYKATKSVQVQSRIKQLEKVERVEIDERDRSAFHFRFIPAQPSGSYP	not soluble
TQVFDLEGYGAISRAMGGTSSSYYTGNAALISNPATLSFAPDGNQFELGLDVVTTDIKVHDSHGAEAKSSTRSNNRGPYVGPQLSYVAQLDDWRFGAGLFVSSGLGTEYGSKSFLSQTENGIQTSFDNSSRLIVLRAPIGFSYQATSKLTFGASVDLVWTSLNLELLLPSSQVGALTAQGNLSGGLVPSLAGFVGTGGAAHFSLSRNSTAGGAVDAVGWGGRLGLTYKLTDNTVLGAMYNFKTSVGDLEGKATLSAISGDGAVLPLDGDIRVKNFEMPASLTLGLAHQFNERWVVAADIKRAYWGDVMDSMNVAFISQLGGIDVALPHRYQDITVASIGTAYKYNNDLTLRAGYSYAQQALDSELILPVIPAYLKRHVTFGGEYDFDKDSRINLAISFGLRERVQTPSYLAGTEMLRQSHSQINAVVSYSKNFHHHHHH	soluble
KSITIQTPYLIPDQPIYESLTIALAAGVKVNIFIPDRPDHPFVYRATQYYAQEFIDFGANVYRYDGGFLHSKLLIIDDEIVSIGSANMDIRSFELSFEANAFIYSSYFAKKIEKQISIDISKSKLLSKKDFETQ	not soluble
MAMHTWFECKIRYEKTMENGMQKKVTEPYLVDALSFTEAEARIIEEMTPFITGEFTVSDIKRANYSELFPSDEESADRWFKCKLIFITLDEKSGAEKKTSTQVLVQAADLRDAVKKLDEGMKGTMADYQIGMVSETPLMDVYPYSAGPNDKPEFDPSKA	not soluble
MSEEIKPSAPDAPTASPIVTRDEQNLVVSFLQFIRQKVSQNQATAEQAEALEVAIQCLEHSFGLDDASYAFQPSRPILELFKSAEGLPEGESALPTPSDSDISQANKLKEEGNDLMKASQFEAAVQKYNAAIKLNRDPVYFCNRAAAYCRLEQYDLAIQDCRTALALDPSYSKAWGRMGLAYSCQNRYEHAAEAYKKALELEPNQESYKNNLKIAEDKLKELESSRPAPGANPLAGLLGAMGGGPGGMPAMPGMPNMQNLMNEPGLMQAASQMMSDPALSDMFNNMMSGNGSIADLMAAGQQMAARMQETNPELIENLRRQFGPGADGGAPPPNPPQ	not soluble
MAKDGGVSCLRRSEMIGIGIGELESPPLDSDQVHVLAVDDSLVDRIVIERLLRITSCKVTAVDSGWRALEFLGLDDDKAAVEFDRLKVDLIITDYCMPGMTGYELLKKIKESTSFKEVPVVIMSSENVMTRIDRCLEEGAEDFLLKPVKLADVKRLRSYLTRDVKVAAEGNKRKLTTPPPPPPLSATSSMESSDSTVESPLSMVDDEDSLTMSPESATSLVDSPMRSPGLA	not soluble
MKSVTVFLLAGTTFAIYFDGKGSRHSSSSSEEHGGHGPRPGPGGPGRGGNCSPGWLRFERQSGVWCVFVGLAGINDNSFAQKDGQSACVALGATLTGFQNDKERMAVADEAGRKLGAAGGGIAGLWLGATTRAGCKAGACGPLNTFMWTDGVTTGTAGLKWATGEPDSVDYPGTAACIQQFIMLPNWVPGPYDLEGFRTGFTHGILYKFSCIAPVTPGTRMFACGKMAAG	not soluble
MALVPYEESAAIGLQKFHKPLATFSFANHTIQIRQDWRQLGVAAVVWDAAVVLSMYLEMGAVELRGCSAVELGAGTGLVGIVAALPGAQVTITDRKVALEFLKSNVEANLPPHIQPKAVVKELTWGQNLESFSPGEFDLILGADVIYLEDTFTDLLQTLGHLCSNNSVILLACRIRYERDSNFLTMLERQFTVSKVHYDPEKDVHIYKAQKRNQREDL	not soluble
MVFGENQDLIRTHFQKEADKVRAMKTNWGLFTRTRMIAQSDYDFIVTYQQAENEAERSTVLSVFKEKAVYAFVHLMSQISKDDYVRYTLTLIDDMLREDVTRTIIFEDVAVLLKRSPFSFFMGLLHRQDQYIVHITFSILTKMAVFGNIKLSGDELDYCMGSLKEAMNRGTNNDYIVTAVRCMQTLFRFDPYRVSFVNINGYDSLTHALYSTRKCGFQIQYQIIFCMWLLTFNGHAAEVALSGNLIQTISGILGNCQKEKVIRIVVSTLRNLITSNQDVYMKKQAALQMIQNRIPTKLDHLENRKFTDVDLVEDMVYLQTELKKVVQVLTSFDEYENELRQGSLHWSPAHKCEVFWNENAHRLNDNRQELLKLLVAMLEKSNDPLVLCVAAHDIGEFVRYYPRGKLKVEQLGGKEAMMRLLTVKDPNVRYHALLAAQKLMINNWKDLGLEI	not soluble
